# Test system: Bacillus subtilis
# Assay: cleaved RNA product abundance (RNA/gDNA barcode ratio) relative to median wild-type variant (ratio to wild type); higher = more accumulation of the downstream cleavage product
# How it was run: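 The B. subtilis chromosome carried reporter mRNAs, truncated aprE or tetM, containing barcoded RNase Y cleavage-site windows mutagenized using oligos with a 9% error rate. After growth in LB at 37°C from OD600 0.0003 to 0.3, cleaved RNA was gel-selected, reverse transcribed and barcode-sequenced next to genomic DNA barcodes, with UMI collapsing. Each construct's RNA:gDNA barcode ratio was scaled to the median construct with the unmutated site. That scaled ratio is reported as cleaved product abundance.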
# [1] = experiment (reporter, strain, medium): exp 4a: truncated aprE reporter, strain BJT201 with 2% xylose (RNase J1 expressed), cleavage site: cggR-gapA (positions -7 to +36 mutated)
# [2] = experiment (reporter, strain, medium): exp 8a: truncated aprE reporter, strain BJT201 with 2% xylose (RNase J1 expressed), cleavage site: glnRA (positions -5 to +31 mutated)
# [3] = experiment (reporter, strain, medium): exp 2b: truncated aprE reporter, strain BJT200, cleavage site: cggR-gapA (positions -7 to +36 mutated)
Sequence,cleaved RNA product abundance [1],cleaved RNA product abundance [2],cleaved RNA product abundance [3]
ACAGACGAAGGAGCCGCAAAGAAGTTATTAGGGGATGAATAATCCCTGAATATAAATATCTCTCACTTATTTAAA,0.371,–,–
CGACATGTCCCGCTTCTTTCATTAATCCGTTCGCAATTGTTTTGCTATATACATTTACCTTTTAAGAGGAGGAAT,–,0.31,–
CGACATGTCCCGCTTCTTTCATTAATCCGTTCGCAACTGTTTTGCTATATACATTTACGTTTTAAGAGGAGGAAT,–,0.342,–
ACAGACGAAGGAGCCGCAAAGAAGATATTAAGGGATGAAAAATCCCTCAATATAAATATCTCTCACTTATTTAAA,0.376,–,–
CGACATGTCCCGCTTCTTTCATTAATCCATTACCAACTGTTTTACTATATACATTTACCTTTTAAGAGGAGGAAT,–,0.262,–
ACAGACGAAGGAGCCGCAAAGAAATTATTAAGGGATGAATAATCCTTCAATATAAATATCTCTCACTTATTTAAA,0.674,–,–
ACAGACGAAGGAGCCGCAAAGAAGTTATTAAGGGATGAATAATCACTCAATCTAAATATCTCTCACTTATTTAAA,0.0379,–,–
ACAGACGAAGGAGCCGCAAAGAAGTTATTAAGGAAGGAATAATCCCTCAATATAAATATCTCTCACTTATTTAAA,0.233,–,–
ACAGACGAAGGAGCCGCAAAGAAGTTATTAAGGGATTAATATTCCCTCAATATAAATATCTCTCACTTATTTAAA,1.13,–,–
CGACATGTCCCGCTTCTTTCATTATTCCGTTAGCAACTGTTTTTCTATATACATTTACCTTTTAAGAGGAGGAAT,–,0.62,–
CGACATGTCCCGCTTCTTTCATTAATCCGTTAGCAACTGTTTTACTATAAACATTTACCTTTTAAGAGGAGGAAT,–,0.553,–
ACAGACGAAGGAGCCGCAAAAAAGTTACTAAGGGATGAATAATCCCTCAATATAAATATCTCTCACTTATTTAAA,–,–,0.222
ACAGACGAAGGAGCCGCAAAGAAGTTATTAAGGAATGAATAATCCCTCAGTATAAATATCTCTCACTTATTTAAA,0.15,–,–
ACAGACGAAGGAGCCGCAAAGCAGTTATTAAGGTATGAATAATCCCTCAATATAAATATCTCTCACTTATTTAAA,0.0937,–,–
CGACATGTCCCGCTTCTTTCATTAATCCGTTAGCAACTGTTTTGCTATATACATTTATCTTTTAAGAGGAGGAAT,–,1.27,–
ACAGACGAAGGAGCCGCAAAGAAATTATTAAGGGATGGATAATCCCTCAATATAAATATCTCTCACTTATTTAAA,0.62,–,–
ACAGACGAAGGAGCCGCAAAGAAGTTATTAAGGGATGAATAATCCCTCAATATAAATATCTCTCACTTTTTAAAG,0.879,–,–
CGACATGTCCCGCTTCTTTCATTAATCCGTTAGCAAGTGTTTTGCTATATACATTTACTTTTTAAGAGGAGGAAT,–,1.39,–
ACAGACGAAGGAGCCGCAAAGAAATTATTAACGGATGAATAATCCCTCAATATAAATATCTCTCACTTATTTAAA,0.168,–,0.142
ACAGACGAAGGAGCCGCAAAGAAGTTATTAAGGGATGAATAATCCCACAATATAAATAACTCTCACTTATTTAAA,–,–,0.231
ACAGACGAAGGAGCCGCAAATAAGTTATTAAGGGATGAATAATCCCTCCATATAAATATCTCTCACTTATTTAAA,0.333,–,0.274

Sequence,cleaved RNA product abundance [1],cleaved RNA product abundance [2],cleaved RNA product abundance [3]
ACAGACGAAGGAGCCGCAAAGAATTTATTAAGGTATGAATAATCCCTCAATATAAATATCTCTCACTTATTTAAA,0.178,–,0.102
ACAGACGAAGGAGCCGCAAAGAAGTTATGAAGGGATGAATTATCCCTCAATATAAATATCTCTCACTTATTTAAA,0.343,–,0.232
ACAGACGAAGGAGCCGCAAAGAAGTTATTAAGGGATGACTAATCCATCAATATAAATATCTCTCACTTATTTAAA,0.154,–,0.112
ACAGACGAAGGAGCCGCAAAGATGTTATTAAGGGATGAATGATCCCTCAATATAAATATCTCTCACTTATTTAAA,0.51,–,–
CGACATGTCCCGCTTCTTTCATTAATCCGTTAGCAACTTTTTTTCTATATACATTTACCTTTTAAGAGGAGGAAT,–,0.658,–
ACAGACGAAGGAGCCGCAAAGAAGTTATTAAGGGATTAATAATCCCTCAATATAAATAACTCTCACTTATTTAAA,0.594,–,1.02
ACAGACGAAGGAGCCGCAAAAAAGTTATTAAGGTATAAATAATCCCTCAATATAAATATCTCTCACTTATTTAAA,0.0805,–,–
ACAGACGAAGGAGCCGCAAAAAAGTTATTAAGGGGTGAATAATCCCTCAATATAAATATCTCTCACTTATTTAAA,0.602,–,0.759
ACAGACGAAGGAGCCGCAAAGAAGTTATTAAAAGATGAATAATCCCTCAATATAAATATCTCTCACTTATTTAAA,0.0921,–,0.107
ACAGACGAAGGAGCCGCAAAGAAGTTATTAAGGGATGTAGAATCCCTCAATATAAATATCTCTCACTTATTTAAA,0.768,–,–
ACAGACGAAGGAGCCGCAAAGAAGTTATTAAGGGATGAATAATCCCCAAATATAAATATCTCTCACTTATTTAAA,–,–,0.336
ACAGACGAAGGAGCCGCAAAGAAGTAATTAAGGGATGAATAATCCCTCAATATAAACATCTCTCACTTATTTAAA,0.264,–,–
ACAGACGAAGGAGCCGCAAAGAAGTTATTAAGGAATGAATAATCCCTCAATCTAAATATCTCTCACTTATTTAAA,0.0695,–,–
ACAGACGAAGGAGCCGCAAACAAGTTAATAAGGGATGAATAATCCCTCAATATAAATATCTCTCACTTATTTAAA,0.274,–,–
ACAGACGAAGGAGCCGCAAAGAAGTTATTAAGGGATGAATAATCCATCAATATACATATCTCTCACTTATTTAAA,0.296,–,–
CGACATGTCCCGCTTCTTTCATTAATCCGTTAGCAAATGTTTTGCTATACACATTTACCTTTTAAGAGGAGGAAT,–,0.444,–
CGACATGTCCCGCTTCTTTCATTATTCCGTTAGCAACTGTTTTGCTATCTACATTTACCTTTTAAGAGGAGGAAT,–,0.167,–
CGACATGTCCCGCTTCTTTCATTAATCAGTTAGCAACTATTTTGCTATATACATTTACCTTTTAAGAGGAGGAAT,–,1.97,–
ACAGACGAAGGAGCCGCAACGATGTTATTAAGGGATGAATAATCCCTCAATATAAATATCTCTCACTTATTTAAA,1.36,–,–
ACAGACGAAGGAGCCGCAAATAAGCTATTAAGGGATGAATAATCCCTCAATATAAATATCTCTCACTTATTTAAA,0.149,–,–
ACAGACGAAGGAGCCGCAAAGAAGTTATTAAGTGATGAATACTCCCTCAATATAAATATCTCTCACTTATTTAAA,0.181,–,–

Sequence,cleaved RNA product abundance [1],cleaved RNA product abundance [2],cleaved RNA product abundance [3]
CGACATGTCCCGCTTCTTTCATTAATCTGTTAGGAACTGTTTTGCTATATACATTTACCTTTTAAGAGGAGGAAT,–,0.268,–
ACAGACGAAGGAGCCGCAAATAAGTTATTAAGGGATGAATAGTCCCTCAATATAAATATCTCTCACTTATTTAAA,0.887,–,0.852
CGACATGTCCCGCTTCTTTCATTAATCCGTTATCAACTGTTTTGCTATATACATTTTCCTTTTAAGAGGAGGAAT,–,0.122,–
ACAGACGAAGGAGCCGCAAAGAAGTTATTAAGGGATGAATATTCCCGCAATATAAATATCTCTCACTTATTTAAA,0.221,–,–
CGACATGTCCCGCTTCTTTCATTACTCCGTTAGCAACTGTTTAGCTATATACATTTACCTTTTAAGAGGAGGAAT,–,0.694,–
ACAGACGAAGGAGCCGCAAAGAAGTTATAAAGGGATGAATACTCCCTCAATATAAATATCTCTCACTTATTTAAA,0.287,–,–
ACAGACGAAGGAGCCGCAAAGAAGTTATTAAGGGATGAATAATCACTTAATATAAATATCTCTCACTTATTTAAA,0.498,–,0.584
ACAGACGAAGGAGCCGCAAAGAAGTTATTAAGAGATGAATAATACCTCAATATATATATCTCTCACTTATTTAAA,0.174,–,–
ACAGACGAAGGAGCCGCTAAGAAGTTATTAAGGGACGAATAATCCCTCAATATAAATATCTCTCACTTATTTAAA,0.573,–,–
ACAGACGAAGGAGCCGCAAAGAATTTATTAAGGGATGAATAATCCCTCAATCTAAATATCTCTCACTTATTTAAA,0.102,–,–
ACAGACGAAGGAGCCGCAAAAAAGTTAATAAGGGATGAATATTCCCTCAATATAAATATCTCTCACTTATTTAAA,0.21,–,–
CGACATGTCCCGCTTCTTTCATTAATACGTTAGCAACTATTTTGCTATATACATTTACCTTTTAAGAGGAGGAAT,–,1.33,–
ACAGACGAAGGAGCCGCAAAGAAGTTATTCAGGGATGAATAATCCCTCAATATAAAAATCTCTCACTTATTTAAA,0.461,–,–
ACAGACGAAGGAGCCGCAAAGAAGTTATTAAGCGATGAATTATCCCTCAATATAAATATCTCTCACTTATTTAAA,0.101,–,0.101
ACAGACGAAGGAGCCGCAAAGAAGTTATTAAGTGATGAATAATCACTCAATATAAATATCTCTCACTTATTTAAA,1.13,–,0.81
CGACATGTCCCGCTTCTTTCATTATTCCGTTAGCTACTGTTTTGCTATATACATTTACCTTTTAAGAGGAGGAAT,–,0.764,–
CGACATGTCCCGCTTCTTTCATTAATCCGAAAGCAACTGTTTTGCTATATACATTTACCTTTTAAGAGGAGGAAT,–,0.39,–
CGACATGTCCCGCTTCTTTCATTAATCCGTTAGCAACCTTTTTGCTATATACATTTACCTTTTAAGAGGAGGAAT,–,1.44,–
CGACATGTCCCGCTTCTTTCATTAATCCTTTAGCAACTGTTTTGCTATATACATATACCTTTTAAGAGGAGGAAT,–,0.842,–
CGACATGTCCCGCTTCTTTCATTATTCCGTTAGCAACTGTTTTGCTATATAAATTTACCTTTTAAGAGGAGGAAT,–,0.753,–

# From the supplement of paper PMC11780869
